Patent US20060121047A1, “Use of hmgb polypetides for increasing immune responses” (priority 2002, published 2006)
Marks after values point to notes of the source that are not given here.

Experiments:
[1] = test system: D-galactosamine-sensitized Balb/c mice; experiment: Serum cytokine levels in D-galactosamine-sensitized Balb/c mice; format: in vivo; conditions: 1 mg/mouse i.p. plus D-gal, 7 hours
Experimental: To further assess the lethality of the HMGB1 B box protein in vivo the HMGB1 B box was again administered to D-galactosamine-sensitized Balb/c mice. Mice (3 per group) received D-gal (20 mg/mouse) plus B box or vector (1 mg/mouse) intraperitoneally for 7 hours and were then sacrificed by decapitation. Blood was collected, and organs (liver, heart, kidney and lung) were harvested and fixed in 10% formaldehyde. Tissue sections were prepared with hematoxylin and eosin staining for histological evaluation (Criterion Inc., Vancouver, Canada). […] In FIG. 4J, hepatocyte dropouts are seen surrounded by accumulated polymorphonuclear leukocytes. The arrows in FIG. 4J point to the sites of polymorphonuclear accumulation (dotted) or apoptotic hepatocytes (solid).

[2] = test system: RAW 264.7 cells; experiment: TNF mRNA expression in RAW 264.7 cells (RNase protection assay); format: cell-based, murine; conditions: 10 μg/ml
Experimental: The kinetics of B box-induced TNF release was also examined. TNF release and TNF mRNA expression was measured in RAW 264.7 cells induced by B box polypeptide or GST tag polypeptide only used as a control (vector) (10 μg/ml) for 0 to 48 hours. Supernatants were analyzed for TNF protein levels by an L929 cytotoxicity assay (N=3-5) as described herein. For mRNA measurement, cells were plated in 100 mm plate and treated in Opti-MEM I medium containing B box polypeptide or the vector alone for 0, 4, 8, or 24 hours, as indicated in FIG. 2D. The vector only sample was assayed at the 4 hour time point. Cells were scraped off the plate and total RNA was isolated by RNAzol B method in accordance with the manufacturer's instructions (Tel-Test “B”, Inc., Friendswood, Tex.). TNF (287 bp) was measured by RNase protection assay (Ambion, Austin, Tex.). Equal loading and the integrity of RNA was verified by ethidium bromide staining of the RNA sample on agarose-formaldehyde gel. […] TNF mRNA expression was maximal at 4 hours and decreased at 8 and 24 hours. […] A similar study was carried out measuring TNF protein released from RAW 264.7 cells 0, 4, 8, 24, 32 or 48 hours after administration of B box or vector only (GST tag), using the L929 cytotoxicity assay described herein. […] Data are representative of three separate experiments.

[3] = test system: D-galactosamine-sensitized Balb/c mice; experiment: Toxicity (survival) in D-galactosamine-sensitized Balb/c mice; format: in vivo; conditions: for Alive/total: survival monitored up to 7 days
From the text: Male 6-8 week old Balb/c and C3H/HeJ mice were purchased from Harlen Sprague-Dawley (Indianapolis, Ind.) and were allowed to acclimate for 7 days before use in experiments. All animals were housed in the North Shore University Hospital Animal Facility under standard temperature, and a light and dark cycle.
The D-galactosamine-sensitized model has been described previously (Galanos et al., Proc Natl. Acad. Sci. USA 76: 5939-5943, 1979; and Lehmann et al., J. Exp. Med. 165: 657663, 1997). Mice were injected intraperitoneally with 20 mg D-galactosamine-HCL (Sigma)/mouse (in 200 μl PBS) and 0.1 or 1 mg of either HMGB1 B box or vector protein (in 200 μl PBS).
To investigate whether the HMGB1 B box has cytokine activity in vivo, we administered HMGB1 B box protein to unanesthetized Balb/c mice sensitized with D-galactosamine (D-gal), a model that is widely used to study cytokine toxicity (Galanos et al., supra). Briefly, mice (20-25 gram, male, Harlan Sprague-Dawley, Indianapolis, IN) were intraperitoneally injected with D-gal (20 mg) (Sigma) and B box (0.1 mg/ml/mouse or 1 mg/ml/mouse) or GST tag (vector; 0.1 mg/ml/mouse or 1 mg/ml/mouse), as indicated in Table 1. […]

B1: B box: Recombinant GST-system human HMGB1 mutant containing only the B box, 74 amino acids, SEQ ID NO: 20 (protein, listed as Homo sapiens)
chain: FKDPNAPKRLPSAFFLFCSEYRPKIKGEHPGLSIGDVAKKLGEMWNNTAADDKQPYEKKAAKLKEKYEKDIAAY
modifications: GST system
- serum levels of IL-1β [1]: 15+3 pg/ml
- serum levels of IL-6 [1]: 315+93 pg/ml
- time of maximal TNF mRNA expression [2]: 4 h
- TNF mRNA expression ([2]; 0, 4, 8 or 24 hours (vector at 4 hours) (FIG. 2D)): increased significantly
- Alive/total ([3]; 0.1 mg/mouse i.p. with D-gal 20 mg): 6/6
- Alive/total ([3]; 1 mg/mouse i.p. with D-gal 20 mg): 2/8*
- lethality ([3]; 0.1 or 1 mg/mouse i.p.): lethal to D-galactosamine-sensitized mice in a dose-dependent manner
- time of death ([3]; instances in which death occurred): ≤ 12 h
- late deaths among survivors ([3]; survivors followed for 2 weeks): no later deaths from B box toxicity were observed
